Measured values: patent US20180280423A1 (NATIONAL YANG MING UNIVERSITY, published 2018)

Target: T1, epidermal growth factor receptor (EGFR) (human, UniProt P00533 25-1210)
T1 construct: whole, on cells; Endogenous EGFR in human HNSCC cells, or wild-type pHA-EGFR where transfected; also called ErbB1; total EGFR
Test: interaction of transfected LTβ with EGFR (method not named; immunoprecipitation in Methods)
Description: For immunoprecipitation, the lysates were mixed with an equal amount of Co-IP buffer. The primary antibody or IgG was added to the lysates, and the reactions were incubated and then blocked with protein A beads overnight. The beads were collected and washed gently prior to immunoblotting. ImageJ software was used for densitometric measurements of the western blots.

B1: Ectopic LTβ (ligand)
chain: MGALGLEGRGGRLQGRGSLLLAVAGATSLVTLLLAVPITVLAVLALVPQDQGGLVTETADPGAQAQQGLGFQKLPEEEPETDLSPGLPAAHLIGAPLKGQGLGWETTKEQAFLTSGTQFSDAEGLALPQDGLYYLYCLVGYRGRAPPGGGDPQGRSVTLRSSLYRAGGAYGPGTPELLLEGAETVTPVLDPARRQGYGPLWYTSVGFGGLVQLRRGERVYVNISHPDMVDFARGKTFFGAVMVG
notes: also called pFLAG-LTB product; transfected LTβ; not shown: FLAG tag from the pFLAG-CMV2 vector
B1: binds.
